Experimental findings from PMC4684421 (Protein expression and purification, 2015) are described below.

Assay in all cases: enzyme inhibition kinetics
The target of test [1] is Cathepsin B (human).
Test [2] concerns the target Cathepsin B (human). This is another data set of the same source.
Test [3] concerns the target T1, Papain (UniProt P00784 134-345).
T1 sequence (looked up): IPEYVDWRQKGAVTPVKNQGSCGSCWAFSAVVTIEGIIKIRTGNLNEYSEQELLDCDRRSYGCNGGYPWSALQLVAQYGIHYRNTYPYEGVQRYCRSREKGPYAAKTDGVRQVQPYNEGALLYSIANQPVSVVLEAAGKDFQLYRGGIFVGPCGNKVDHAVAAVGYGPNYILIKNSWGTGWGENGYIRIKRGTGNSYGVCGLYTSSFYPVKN

Test [4] has as its target T1, Papain. This is another data set of the same source.

Where two headings read alike, the source gives them in different places.

The Ki is the equilibrium dissociation constant of an inhibitor or competing ligand from its target. Read a high Ki as weaker binding. For “Human cystatin C (from UniProt P01034 27-146) (natural protein)”, the figures for the Ki with Cathepsin B (human) [1] and in the test with Cathepsin B (human) [2] were 60 pM and 100 pM, respectively.

B1: Human cystatin C (natural protein, UniProt P01034 27-146, looked up)
chain: SSPGKPPRLVGGPMDASVEEEGVRRALDFAVGEYNKASNDMYHSRALQVVRARKQIVAGVNYFLDVELGRTTCTKTQPNLDNCPFHDQPHLKRKAFCSFQIYAVPWQGTMTLSKSTCQDA
Consider B1, for which the Ki with Papain [3] was less than 5 pM; with Papain [4], less than 7 pM.
